According to PMC9795577:
One block for each substance: values may come before it.

Assays:
[1] = biological target: FLAG-tagged yeast PEX13 with a single cysteine at residue 104 in the YG domain (S. cerevisiae) (UniProt P80667); assay: cross-linking; disulfide cross-linking of introduced cysteines in intact yeast membranes: 0, 50 or 200 μM Aldrithiol-4, 30 min at 30 °C, 20 mM HEPES-NaOH pH 7.2, 50 mM NaCl, 250 mM sucrose, 1 mM EDTA; quenched with NEM, solubilised in 0.5 % DDM, anti-FLAG IP, non-reducing or reducing SDS-PAGE, blot; also with DDM added before the oxidant, and in strains lacking PEX2, PEX5, PEX14 or PEX17
[2] = biological target: FLAG-tagged yeast PEX13 with a single cysteine at residue 131 in the YG domain (S. cerevisiae) (UniProt P80667); assay: as above
[3] = biological target: FLAG-tagged yeast PEX13 with two cysteines in the YG domain (positions 104 and 131) (S. cerevisiae) (UniProt P80667); assay: as above
[4] = biological target: FLAG-tagged yeast PEX13 with two cysteines (104 and 131) and all tyrosines of the YG domain converted into serines (UniProt P80667); assay: disulfide crosslinking in intact membranes, FLAG IP and immunoblot quantification; settings: nonreducing SDS-PAGE, read off a plot
FLAG-tagged yeast PEX13 with two cysteines (104 and 131) and all tyrosines of the YG domain converted into serines, sequence (P80667 other isoform, or with tags, fused parts or gaps): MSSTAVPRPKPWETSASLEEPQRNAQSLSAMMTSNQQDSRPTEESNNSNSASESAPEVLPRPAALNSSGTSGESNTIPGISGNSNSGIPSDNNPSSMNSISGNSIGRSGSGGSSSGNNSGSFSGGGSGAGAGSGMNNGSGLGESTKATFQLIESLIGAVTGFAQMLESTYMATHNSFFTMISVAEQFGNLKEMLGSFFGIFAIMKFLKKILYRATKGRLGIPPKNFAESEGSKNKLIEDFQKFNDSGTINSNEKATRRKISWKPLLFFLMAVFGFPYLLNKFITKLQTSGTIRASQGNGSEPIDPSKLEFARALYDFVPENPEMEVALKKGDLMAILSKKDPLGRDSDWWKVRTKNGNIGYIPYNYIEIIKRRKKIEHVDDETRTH

FLAG-tagged yeast PEX13 with a single cysteine at residue 131 in the YG domain, sequence (P80667 whole entry, the tested form may be a part): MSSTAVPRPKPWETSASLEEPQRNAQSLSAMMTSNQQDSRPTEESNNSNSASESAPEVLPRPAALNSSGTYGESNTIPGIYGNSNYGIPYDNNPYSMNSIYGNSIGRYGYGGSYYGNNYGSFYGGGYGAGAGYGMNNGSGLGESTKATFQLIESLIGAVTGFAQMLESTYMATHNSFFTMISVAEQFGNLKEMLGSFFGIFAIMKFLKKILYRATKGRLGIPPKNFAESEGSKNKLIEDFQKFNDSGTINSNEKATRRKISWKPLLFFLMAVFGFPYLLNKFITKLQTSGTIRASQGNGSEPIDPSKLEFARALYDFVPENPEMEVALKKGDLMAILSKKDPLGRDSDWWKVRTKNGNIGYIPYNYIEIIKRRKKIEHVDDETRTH
FLAG-tagged yeast PEX13 with two cysteines in the YG domain (positions 104 and 131), sequence (P80667 whole entry, the tested form may be a part): as above
FLAG-tagged yeast PEX13 with a single cysteine at residue 104 in the YG domain, sequence (P80667 whole entry, the tested form may be a part): as above

percent disulfide-linked dimers [1]: > 70%
Substance: FLAG-tagged yeast PEX13 with a single cysteine at residue 104 in the YG domain (from UniProt P80667 1-386) (natural protein)

percent disulfide-linked dimers [2]: > 70%
Substance: FLAG-tagged yeast PEX13 with a single cysteine at residue 131 in the YG domain (from UniProt P80667 1-386) (natural protein)

stoichiometry N [3]: > 8
Substance: FLAG-tagged yeast PEX13 with two cysteines in the YG domain (positions 104 and 131) (from UniProt P80667 1-386) (natural protein)

other: fraction crosslinked ([4]; lane 4 (parent lane 1), lowest point of oxidant series, 0 µM Aldrithiol-4, parent: est. 0.10): 0.06
other: fraction crosslinked ([4]; lane 5 (parent lane 2), middle point of oxidant series, 50 µM Aldrithiol-4, parent: est. 0.67): 0.1
other: fraction crosslinked ([4]; lane 6 (parent lane 3), highest point of oxidant series, 200 µM Aldrithiol-4, parent: est. 0.70): 0.18
Substance: FLAG-tagged yeast PEX13 with two cysteines in the YG domain (positions 104 and 131) (from UniProt P80667) Y71S; Y81S; Y86S; Y90S; Y95S; Y101S; Y108S; Y110S; Y114S; Y115S; Y119S; Y123S; Y127S; Y133S
